Reference: US20040022780A1, “Serine protease and topical retinoid compositions useful for treatment of acne vulgarise and production of anti-aging effects” (priority 1997, published 2004)

How the values were obtained:
involucrin = assay: RT-PCR gene expression in skin, involucrin; format: in vivo, Rhino mouse; conditions: trypsin (0.0001-0.01% (w/v)) daily for five days, dose dependent
Procedure: Rhino mice of Example 1 were treated daily with trypsin compositions (0% (w/v), 0.0001% (w/v), 0.001% (w/v), and 0.01% (w/v)), as prepared in Example 2, for five days and sacrificed at day eight. The skins of vehicle treated mice and trypsin-treated mice were obtained as described in Example 3, then their total RNAs were extracted using “RNA Stat-60” reagent available from Tel-Test “B,” Inc. as described in Chomczymski, “Single Step Method of RNA Isolation By Acid Guanidinium Thiocyanate-phenol-chloroform extraction,” 162 Anal. Biochem. 156-59 (1987) which is incorporated herein by reference in its entirety. A sufficient amount of RNase-free DNase available from Promega, Corp. under the tradename “RQ1 RNase-free DNase” was then added to the extracted RNA from each mouse such that each respective product contained 200 ng of DNased-RNA using the procedure set forth in “RNase-free DNase” protocol published by Promega, Corp. (May, 1995). […]
The PCR products were then analyzed on 2% agarose/ethidium bromide gels according to methods well-known in the art in order to compare the level of expression of certain genes in skins of trypsin-treated and untreated mice. […]

[1] = test system: utriculi of Rhino mouse skin; assay: Rhino mouse utriculus size reduction (whole mount epidermis image analysis); format: in vivo; conditions: for Utriculus Size Reduction (%) vs. Liposome Control: topical once daily for five days, sacrificed day 8
Text: The Rhino mouse has been used as an experimental acne model to screen topically active comedolytic and antikeratinizing agents as described in Sundberg, J. P., “The Hairless and Rhino Mutations, Chromosome 14,” Handbook of Mouse Mutations With Skin and Hair Abnormalities 291-312 (1994), which is incorporated herein by reference in its entirety. A recessive mutation on chromosome 14 results in a mouse with wrinkled skin devoid of body hair by age 25 days. At that time, the end of the first hair cycle, the follicular papillae fail to follow the regressing hair follicles and become isolated in the dermis. […] The upper remnants of the hair follicle are filled with sloughed, cornified cells and form utriculi with a small sebaceous gland at their base, resembling an open comedone. The rhino skin becomes progressively loose, forming folds and ridges, due to the expansion of the surface, secondary to abortive hair follicles filling with cornified debris. The utriculi progressively enlarge, forming pilary cists (pseudocomedones), which are dilated follicular infundibula filled with cornified debris.
RHJ/LE Hairless (“Rhino”) male mice, 5-7 weeks of age, were obtained from Jackson Laboratories (Bar Harbor, Me.), and treated as described in Mezick et al., “Topical and Systemic Effects of Retinoids on Horn-Filled Utriculus Size in the Rhino Mouse: A Model to Quantify “Antikeratinizing” Effects of Retinoids,” 83 J. Invest. Dermatol. 110-113 (1984) (“Mezick”), which is incorporated herein by reference in its entirety.
(§1) Rhino mice of Example 1 were topically treated with the trypsin compositions (0.001% (w/v)-1% (w/v)) of Example 2 once daily for five days. Animals were sacrificed at day 8 and image analysis was used to quantify the reduction in utriculi size. For image analysis, whole mount epidermis was processed and microscopic measurements were taken according to the methods described in Mezick as well as Bernerd et al., “The Rhino Mouse Model: The Effects of Topically Applied All-Trans Retinoic Acid and CD271 on the Fine Structure of the Epidermis and Urticuli Wall of Pseudocomedones,” 283(2) Arch. Dermatol. Res. 100-107 (1991) and Bouclier et al., “Quantification of Epidermal Histological Changes Induced by Topical Retinoids and CD271 in the Rhino Mouse Model Using a Standardizing Image Analysis Technique,” 4(2) Skin Pharmacol. 65-73 (1991) which are each incorporated herein by reference in their entirety. Empire Imagins Database version 1.1 was used on a Gateway 2000 P5-100 computer for capturing images. Image Pro Plus version 1.3 was used for measurements and Microsoft Excel version 5.0 for data processing. The mean utriculus diameter (μ) and the mean sebaceous gland size (μ^2) were calculated for each treatment group (3 Rhino mice), using 5 random fields, two measurements per field, per animal. Percent reduction in utriculi diameter was calculated in accordance with the methods described in Finley, D. J., “Parallel Line Assays, Statistical Method in Biological Assay,” Charles Griffen & Company Ltd. 69-104 (1978) which is incorporated herein by reference in its entirety.

Rhino mouse skin = assay: Transepidermal water loss (TEWL), evaporimeter on dorsal skin; format: in vivo; conditions: for TEWL: topical once daily for five days
Text: as §1
To further characterize the effect of trypsin on the Rhino mouse skin, we measured the transepidermal water loss (“TEWL”) using an “Evaporimeter EPI” evaporimeter available from Servomed AB by first normalizing the evaporimeter with the ambient humidity and then placing the probe on the dorsal skin of the test subject at which point a reading of TEWL was taken.

B1: trypsin (protein, UniProt P00760 24-246, looked up)
Serine protease 1: IVGGYTCGANTVPYQVSLNSGYHFCGGSLINSQWVVSAAHCYKSGIQVRLGEDNINVVEGNEQFISASKSIVHPSYNSNTLNNDIMLIKLKSAASLNSRVASISLPTSCASAGTQCLISGWGNTKSSGTSYPDVLKCLKAPILSDSSCKSAYPGQITSNMFCAGYLEGGKDSCQGDSGGPVVCSGKLQGIVSWGSGCAQKNKPGVYTKVCNYVSWIKQTIASN
notes: lyophilyzed trypsin from Sigma-Aldrich, a serine protease, in Hepes buffer mixed with GDL liposomes
level of involucrin (involucrin): increased
Utriculus Size Reduction (%) vs. Liposome Control ([1]; Trypsin 0.001% (w/v) in GDL liposomes): 26.85 ± 4.38%
Utriculus Size Reduction (%) vs. Liposome Control ([1]; Trypsin 0.005% (w/v) in GDL liposomes): 19.58 ± 3.06%
Utriculus Size Reduction (%) vs. Liposome Control ([1]; Trypsin 0.01% (w/v) in GDL liposomes): 33.08 ± 2.15%
Utriculus Size Reduction (%) vs. Liposome Control ([1]; Trypsin 0.05% (w/v) in GDL liposomes): 43.84 ± 0.62%
Utriculus Size Reduction (%) vs. Liposome Control ([1]; Trypsin 0.1% (w/v) in GDL liposomes): 50.67 ± 0.83%
Utriculus Size Reduction (%) vs. Liposome Control ([1]; Trypsin 0.5% (w/v) in GDL liposomes): 54.31 ± 1.33%
Utriculus Size Reduction (%) vs. Liposome Control ([1]; Trypsin 1.0% (w/v) in GDL liposomes): 54.85 ± 1.02%
maximal reduction of utriculus size relative to liposomal control ([1]; further increase in trypsin concentration above ~0.1% (w/v)): ≤ 55%
trypsin concentration at which reduction in utriculus size reached a plateau ([1]; once daily for five days): ~0.1 % (w/v)
TEWL (Rhino mouse skin; Trypsin 0.001% (w/v)): 29.53 ± 3.68 g/m^2h
TEWL (Rhino mouse skin; Trypsin 0.005% (w/v)): 26.40 ± 1.77 g/m^2h
TEWL (Rhino mouse skin; Trypsin 0.01% (w/v)): 28.53 ± 2.18 g/m^2h
TEWL (Rhino mouse skin; Trypsin 0.05% (w/v)): 36.57 ± 2.07 g/m^2h
TEWL (Rhino mouse skin; Trypsin 0.1% (w/v)): 42.80 ± 4.33 g/m^2h
TEWL (Rhino mouse skin; Trypsin 0.5% (w/v)): 36.23 ± 1.24 g/m^2h
TEWL (Rhino mouse skin; Trypsin 1.0% (w/v)): 42.00 ± 1.14 g/m^2h
trypsin concentration at which TEWL increase reached a plateau (Rhino mouse skin; once daily for five days): ~0.05 % (w/v)
TEWL compared with retinoid treatment given alone (Rhino mouse skin; trypsin treated mice): lower than that for retinoid treatment given alone
